Columns and labels:
[1] = biological target: Rhizomucor (Rhizomucor (species not given)); assay: flow cytometry on fixed Rhizomucor spores; blank 'Hu 2nd Only' median 257.20, mean 272.52
[2] = biological target: Rhizopus delemar (Rhizopus delemar); assay: flow cytometry on fixed Rhizopus delemar spores; blank 'Hu 2nd Only' median 565.83, mean 592.76
[3] = biological target: Mucor circinelloides (Mucor circinelloides); assay: flow cytometry on fixed Mucor circinelloides spores; blank 'Hu 2nd Only' median 990.21, mean 1062.19
[4] = biological target: Cunninghamella bertholletiae (Cunninghamella bertholletiae); assay: flow cytometry on fixed Cunninghamella bertholletiae spores; blank 'Hu 2nd Only' median 241.78, mean 250.81
[5] = biological target: Lichtheimia corymbifera (Lichtheimia corymbifera); assay: flow cytometry on fixed Lichtheimia corymbifera spores; blank 'Hu 2nd Only' median 461.38, mean 517.80

Chain of Rhizopus delemar (Rhizopus delemar) (I1CFE1 18-579): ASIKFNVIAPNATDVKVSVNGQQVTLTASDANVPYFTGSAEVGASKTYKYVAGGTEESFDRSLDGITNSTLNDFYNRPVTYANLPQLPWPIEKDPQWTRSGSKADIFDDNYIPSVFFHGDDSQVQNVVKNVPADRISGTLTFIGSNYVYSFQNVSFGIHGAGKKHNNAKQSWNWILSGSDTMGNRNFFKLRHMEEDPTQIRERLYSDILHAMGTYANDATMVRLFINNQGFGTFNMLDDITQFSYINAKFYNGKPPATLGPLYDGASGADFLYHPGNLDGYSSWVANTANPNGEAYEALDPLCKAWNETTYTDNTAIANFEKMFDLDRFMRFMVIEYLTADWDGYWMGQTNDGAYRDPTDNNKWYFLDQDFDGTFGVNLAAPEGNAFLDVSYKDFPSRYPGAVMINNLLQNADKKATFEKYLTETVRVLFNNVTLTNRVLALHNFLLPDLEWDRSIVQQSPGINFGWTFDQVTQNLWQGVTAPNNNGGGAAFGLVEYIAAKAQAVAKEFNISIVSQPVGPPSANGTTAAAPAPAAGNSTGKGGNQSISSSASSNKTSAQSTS

## Hu Isotype IgG (antibody)
[1]
  Mean: FITC-A: 1110
  Median: FITC-A: 843
[2]
  Mean: FITC-A: 1210
  Median: FITC-A: 1010
[3]
  Mean: FITC-A: 2020
  Median: FITC-A: 1820
[4]
  Mean: FITC-A: 1070
  Median: FITC-A: 833
[5]
  Mean: FITC-A: 2830
  Median: FITC-A: 1170

Source: US20240209070A1, “COTH3 BINDING AGENTS AND USES THEREOF” (priority 2021, published 2024)
